Test results reported in article doi:10.1101/2022.04.11.487887 (bioRxiv, 2022).
Values belong to the molecule of their own block, whether it stands above or below them. No end group written: not given here.

Legend:
[1] = biological target: Halo-Xenopus γTuNA-GCN4 L70A (Xenopus laevis | yeast); test: SEC
[2] = biological target: Halo-Xenopus γTuNA-GCN4 L77A (Xenopus laevis | yeast); test: SEC
[3] = biological target: Halo-Xenopus γTuNA-GCN4 wildtype (Xenopus laevis | yeast); test: SEC
[4] = biological target: Strep-His-Halo-3C-Xenopus γTuNA I67A (Xenopus laevis); test: pull-down
[5] = biological target: Strep-His-Halo-3C-Xenopus γTuNA L70A (Xenopus laevis); test: pull-down
[6] = biological target: Strep-His-TEV-HaloTag-3C-Xenopus γTuNA (Xenopus laevis); test: pull-down
[7] = biological target: Halo-3C-AU1 reporter tagged human γTuNA, after PreScission (3C) cleavage (human); test: co-sedimentation
[8] = biological target: Halo-Xenopus γTuNA-GCN4 I67A (Xenopus laevis | yeast); test: SEC
[9] = biological target: Halo-Xenopus γTuNA-GCN4 F75A (Xenopus laevis | yeast); test: SEC
SEC = biological target: the molecule itself; test: SEC

Chain of Xenopus γ-tubulin ring complex (γTuRC) (Q5U4M5 whole entry, looked up): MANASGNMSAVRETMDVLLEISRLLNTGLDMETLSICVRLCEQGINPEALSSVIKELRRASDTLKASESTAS
Chain of Xenopus γ-tubulin ring complex (γTuRC) (P23330 whole entry, looked up): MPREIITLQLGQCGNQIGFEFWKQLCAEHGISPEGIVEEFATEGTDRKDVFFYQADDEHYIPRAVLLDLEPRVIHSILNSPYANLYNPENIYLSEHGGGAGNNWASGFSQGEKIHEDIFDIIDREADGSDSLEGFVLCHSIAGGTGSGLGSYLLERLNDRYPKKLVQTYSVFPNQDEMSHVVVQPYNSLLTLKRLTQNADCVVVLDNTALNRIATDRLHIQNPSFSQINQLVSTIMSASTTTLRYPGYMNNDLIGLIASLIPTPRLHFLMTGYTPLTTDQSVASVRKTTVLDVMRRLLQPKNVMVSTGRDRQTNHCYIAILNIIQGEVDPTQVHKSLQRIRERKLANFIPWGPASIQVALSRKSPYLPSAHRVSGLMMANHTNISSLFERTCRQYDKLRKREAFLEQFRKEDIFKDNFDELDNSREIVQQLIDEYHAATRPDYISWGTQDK

stoichiometry N [1]: 2
Molecule: Halo-Xenopus γTuNA-GCN4 L70A

stoichiometry N [2]: 2
Molecule: Halo-Xenopus γTuNA-GCN4 L77A

stoichiometry N [3]: 2
Molecule: Halo-Xenopus γTuNA-GCN4 wildtype

percent of the wildtype's γTuRC binding [4]: 85%
percent of the wildtype's γTuRC binding [5]: 50%
percent of γ-tubulin signal lost from the extract after one round of depletion [6]: > 75%
percent of purified γTuRCs that lost their γTuNA dimer [7]: 66%
Molecule: Xenopus γ-tubulin ring complex (γTuRC) (from UniProt P23330 1-451; Q5U4M5 1-72)

stoichiometry N [8]: 2
Molecule: Halo-Xenopus γTuNA-GCN4 I67A

stoichiometry N [9]: 2
Molecule: Halo-Xenopus γTuNA-GCN4 F75A

Molecule: SPTRARNMKDFENQITELKKENFNLKLRIYFLEERMQQEFHGPTEH (domain or fragment, not fully specified (N-terminus)) [Strep-His-TEV-HaloTag-3C-human γTuNA]
stoichiometry N (SEC): 2

Molecule: MKDFEKQIAELKKENFNLKLRIYFLEEQVQQKCDNSSEDLYRMNIE (domain or fragment, Xenopus laevis, not fully specified (N-terminus)) [Strep-His-TEV-HaloTag-3C-Xenopus γTuNA]
stoichiometry N (SEC): 2

Molecule: MKDFEKQIAELKKENANLKLRIYFLEEQVQQKCDNSSEDLYRMNIE (domain or fragment, Xenopus laevis, not fully specified (N-terminus)) [Strep-His-TEV-HaloTag-3C-Xenopus γTuNA F75A]
binding result (SEC): binds

Molecule: MKDFEKQIAELKKENFNAKLRIYFLEEQVQQKCDNSSEDLYRMNIE (domain or fragment, Xenopus laevis, not fully specified (N-terminus)) [Strep-His-Halo-3C-Xenopus γTuNA L77A]
binding result (SEC): binds

Molecule: MKDFEKQAAELKKENFNLKLRIYFLEEQVQQKCDNSSEDLYRMNIE (domain or fragment, Xenopus laevis, not fully specified (N-terminus)) [Strep-His-Halo-3C-Xenopus γTuNA I67A]
binding result (SEC): binds

Molecule: MKDAEKQIAELKKENFNLKLRIYFLEEQVQQKCDNSSEDLYRMNIE (domain or fragment, Xenopus laevis, not fully specified (N-terminus)) [Strep-His-Halo-3C-Xenopus γTuNA F63A]
binding result (SEC): binds

Molecule: MKDFEKQIAEAKKENFNLKLRIYFLEEQVQQKCDNSSEDLYRMNIE (domain or fragment, Xenopus laevis, not fully specified (N-terminus)) [Strep-His-Halo-3C-Xenopus γTuNA L70A]
binding result (SEC): binds
